Several values for one entry are separate records, joined by “and”; a condition that tells them apart may be missing. Equal entries are not always repeated.
Assays:
Assay in all cases: native gel or EMSA; purified p66 on NativePage Novex Bis-Tris gel, then Western blotting with mouse monoclonal anti-RT antibody; in the presence or absence of β-mercaptoethanol
[1] = target: HIV-1 reverse transcriptase p66 subunit, mutant I274A (HIV-1 (pNL4-3-ΔE-EGFP))
[2] = target: HIV-1 reverse transcriptase p66 subunit, wild type (HIV-1 (pNL4-3-ΔE-EGFP))
[3] = target: HIV-1 reverse transcriptase p66 subunit, mutant Y271A (HIV-1 (pNL4-3-ΔE-EGFP))

“HIV-1 reverse transcriptase p66 subunit, mutant I274A (enzyme)” was tested, and the stoichiometry N [1] was 4 and 8.

“HIV-1 reverse transcriptase p66 subunit, wild type (enzyme)” showed a stoichiometry N [2] of 2.

In the case of “HIV-1 reverse transcriptase p66 subunit, mutant Y271A (enzyme)”, the stoichiometry N [3] is reported as 2 and 4.
